For this assay, the target named is T1, Human Siglec-15, His Tag (human Siglec-15 full-length extracellular domain linked with His tag) (human, UniProt Q6ZMC9 20-263).
T1 construct: Bought from ACROBiosystems; also called Siglec-15 protein; SG5-H52H3
T1 sequence: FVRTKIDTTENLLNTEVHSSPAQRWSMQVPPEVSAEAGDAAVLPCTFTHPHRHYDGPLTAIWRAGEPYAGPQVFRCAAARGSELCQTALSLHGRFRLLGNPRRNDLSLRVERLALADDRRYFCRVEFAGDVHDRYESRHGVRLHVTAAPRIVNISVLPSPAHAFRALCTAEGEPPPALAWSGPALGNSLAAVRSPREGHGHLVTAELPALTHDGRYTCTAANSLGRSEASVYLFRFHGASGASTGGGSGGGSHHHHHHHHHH
The assay can be described thus: SPR Biacore, antibody captured by anti-human Fc on CM5, Siglec-15 protein as analyte. Background: Surface plasmon resonance follows binding to a sensor surface in real time, without labels.

B1: 174C11C9-hH2L2 (antibody, IgG1, V domains shown)
VH: QVQLVQSGAEVKKPGASVKVSCKASGYIFTDYYMNWVRQAPGQGLEWIGVFNPYSGGISYNQKFKGRVTLTVDTSTSTAYMELSSLRSEDTAVYYCARDYYYLSSHGFYALDYWGQGTTVTVSS
VL: DIQLTQSPSSLSASVGDRVTITCRASESVDSYGNSFIHWYQQKPGKAPKLLMYRASNLESGIPSRFSGSGSGTDFTLTISSLQPEDFATYYCQQSNEDPLTFGQGTKLEIK
notes: Humanized; hIgG1, Kappa
What is called Kd is the equilibrium constant for the complex coming apart. Low values mean a tighter complex, high ones a looser complex. The koff is the rate constant with which the complex falls apart. A high value points to a short-lived complex. By kon is commonly meant the second-order rate constant of association. A high value points to fast association. For the molecule B1, binding was characterised by a dissociation constant (Kd) of 0.325 nM, the koff is 0.000447 s⁻¹ and the kon amounted to 1.37e+06 M⁻¹ s⁻¹.

B2: 174C11C9-hH3L3 (antibody, IgG1, V domains shown)
VH: QVQLVQSGAEVKKPGASVKVSCKASGYIFTDYYMNWVRQAPGQGLEWIGVFNPYSGGISYAQKFKGRVTLTVDTSTSTAYMELSSLRSEDTAVYYCARDYYYLSSHGFYALDYWGQGTTVTVSS
VL: DIQLTQSPSSLSASVGDRVTITCRASESVDSYGNSFIHWYQQKPGKAPKLLMYRASNLESGVPSRFSGSGSGTDFTLTISSLQPEDFATYYCQQSNEDPLTFGQGTKLEIK
notes: Humanized; hIgG1, Kappa
As to B2, the Kd is 0.614 nM, the koff was 0.000482 s⁻¹ and the association rate constant (kon) worked out at 785000 M⁻¹ s⁻¹.

B3: 124B11F6-hH1L1 (antibody, IgG1, V domains shown)
VH: QVQLVQSGAEVKKPGASVKVSCKASVFNIKDYYMHWVRQAPGQGLEWIGRIDPEDDKTKYAPKFQGRATITADTSTNTAYLELSSLRSEDTAVYYCVRGWLGYIMDFWGQGTTVTVSS
VL: QLVLTQSPSASFSLGASAKLTCTLSSQHSTYTIDWYQQQPEKGPRYVMELKEDGSHSTGDGIPDRFSGSSSGAERYLTISSIQSEDEADYICGVGATIKEQFVYVFGGGTKVTVL
notes: Humanized; hIgG1 heavy chain constant region, Lambda-C2 light chain constant region
As for B3, the Kd stood at 0.109 nM, the koff was 0.000127 s⁻¹ and the kon amounted to 1.17e+06 M⁻¹ s⁻¹.

B4: 124B11F6-hH2L2 (antibody, IgG1, V domains shown)
VH: QVQLVQSGAEVKKPGASVKVSCKASVFNIKDYYMHWVRQAPGQGLEWIGRIDPEDDKTKYAPKFQGRVTITADTSTSTAYLELSSLRSEDTAVYYCVRGWLGYIMDFWGQGTTVTVSS
VL: QLVLTQSPSASASLGASVKLTCTLSSQHSTYTIDWYQQQPEKGPRYVMELKEDGSHSTGDGIPDRFSGSSSGAERYLTISSLQSEDEADYICGVGATIKEQFVYVFGGGTKVTVL
notes: Humanized; hIgG1, Lambda
B4 had a Kd of 0.202 nM, a koff of 0.000224 s⁻¹ and an association rate constant (kon) of 1.11e+06 M⁻¹ s⁻¹.

B5: 21F6C6-hH2L3 (antibody, IgG1, V domains shown)
VH: EVQLVESGGGLVKPGGSLRLSCAASGFTFSSYAMSWVRQAPGKGLEWVATISSGGSLIYYADSVTGRFTISRDNAKNTLYLQMNSLRAEDTAVYYCVRHGYYYGDSTLYYAMDYWGQGTTVTVSS
VL: DIQLTQSPSSLSASVGDRVTITCRASQSVDYDGDSYMNWYQQKPGKAPKLLIYAASNLESGVPSRFSGSGSGTDFTLTISSLQPEDFATYYCQQSNEAPLTFGQGTKLEIK
notes: Humanized; hIgG1, Kappa
B5 showed a Kd of 0.0724 nM, a koff of 0.000353 s⁻¹ and a kon of 4.87e+06 M⁻¹ s⁻¹.

B6: 21F6C6-hH2L4V (antibody, IgG1, V domains shown)
VH: EVQLVESGGGLVKPGGSLRLSCAASGFTFSSYAMSWVRQAPGKGLEWVATISSGGSLIYYADSVTGRFTISRDNAKNTLYLQMNSLRAEDTAVYYCVRHGYYYGDSTLYYAMDYWGQGTTVTVSS
VL: DIQMTQSPSSLSASVGDRVTITCRASQSVDYEGDSYMNWYQQKPGKAPKLLIYAASNLQSGVPSRFSGSGSGTDFTLTISSLQPEDFATYYCQQSNEAPLTFGQGTKLEIK
notes: Humanized; hIgG1, Kappa
Molecule B6 showed a Kd of 0.114 nM, a dissociation rate constant (koff) of 0.000184 s⁻¹ and a kon of 1.61e+06 M⁻¹ s⁻¹.

B7: 21F6C6-hH2L2 (antibody, IgG1, V domains shown)
VH: EVQLVESGGGLVKPGGSLRLSCAASGFTFSSYAMSWVRQAPGKGLEWVATISSGGSLIYYADSVTGRFTISRDNAKNTLYLQMNSLRAEDTAVYYCVRHGYYYGDSTLYYAMDYWGQGTTVTVSS
VL: DIQLTQSPSSLSASVGDRATITCRASQSVDYDGDSYMNWYQQKPGKAPKLLIYAASNLESGVPSRFSGSGSGTDFTLTISSVQPEDFATYYCQQSNEAPLTFGQGTKLEIK
notes: Humanized; hIgG1, Kappa
The molecule B7 gave a Kd of 0.0683 nM, a koff of 0.000314 s⁻¹ and a kon of 4.59e+06 M⁻¹ s⁻¹.

B8: 21F6C6-hH1L1 (antibody, IgG1, V domains shown)
VH: EVQLVESGGGLVKPGGSLRLSCAASGFTFSSYAMSWVRQAPGKGLEWVATISSGGSLIYYPDSVTGRFTISRDNAKSTLYLQMNSLRAEDTAVYYCVRHGYYYGDSTLYYAMDYWGQGTTVTVSS
VL: DIQLTQSPSSLSASVGDRATITCRASQSVDYDGDSYMNWYQQKPGKAPKLLIYAASNLESGIPARFSGSGSGTDFTLTISSVQPEDFATYYCQQSNEAPLTFGQGTKLEIK
notes: Humanized; hIgG1 heavy chain constant region, Kappa light chain constant region
B8: the Kd is 0.0806 nM, the koff came to 0.000341 s⁻¹ and the kon is 4.23e+06 M⁻¹ s⁻¹.

B9: 21F6C6-hH2L4 (antibody, IgG1, V domains shown)
VH: EVQLVESGGGLVKPGGSLRLSCAASGFTFSSYAMSWVRQAPGKGLEWVATISSGGSLIYYADSVTGRFTISRDNAKNTLYLQMNSLRAEDTAVYYCVRHGYYYGDSTLYYAMDYWGQGTTVTVSS
VL: DIQMTQSPSSLSASVGDRVTITCRASQSVDYDGDSYMNWYQQKPGKAPKLLIYAASNLQSGVPSRFSGSGSGTDFTLTISSLQPEDFATYYCQQSNEAPLTFGQGTKLEIK
notes: Humanized; hIgG1, Kappa
Molecule B9 gave a Kd of 0.0856 nM, a koff of 0.000414 s⁻¹ and a kon of 4.84e+06 M⁻¹ s⁻¹.

The values are drawn from patent publication US20240092897A1 (SHANGHAI JMT BIO TECHNOLOGY, published 2024).
